Source: the Immune Epitope Database (IEDB)
pIC50, pKd: −log10 of the molar value.

Key:
HLA-A*24:02 [1] = assay: IEDB peptide-MHC binding, purified MHC/competitive/fluorescence; ≥ and ≤ were set here for values at or beyond the usual limits of such assays
HLA-A*26:01 [2] = assay: IEDB peptide-MHC binding, purified MHC/competitive/fluorescence; filed as Kd, often an IC50 or EC50 that approximates it; ≥ and ≤ were set here for values at or beyond the usual limits of such assays
HLA-B*44:02 [3] = assay: IEDB peptide-MHC binding, purified MHC/competitive/radioactivity; filed as Kd, often an IC50 or EC50 that approximates it; ≥ and ≤ were set here for values at or beyond the usual limits of such assays
HLA-A*02:01 [4] = assay: as above
HLA-B*40:01 [5] = assay: as above
HLA-B*44:03 = assay: as above
HLA-A*23:01 = assay: as above; settings: source organism: Dengue virus 1 Brazil/97-11/1997
HLA-A*24:02 [6] = assay: as above; settings: source organism: Dengue virus 1 Brazil/97-11/1997
HLA-B*07:02 [7] = assay: as above
HLA-B*35:01 = assay: as above; settings: source organism: Dengue virus 1 Brazil/97-11/1997
HLA-B*53:01 = assay: as above; settings: source organism: Dengue virus 1 Brazil/97-11/1997
HLA-A*01:01 = assay: IEDB peptide-MHC binding, purified MHC/direct/fluorescence; filed as Kd, often an IC50 or EC50 that approximates it; ≥ and ≤ were set here for values at or beyond the usual limits of such assays
HLA-A*02:01 [8] = assay: as above
HLA-A*03:01 = assay: as above
HLA-A*11:01 = assay: as above
HLA-A*24:03 = assay: as above
HLA-A*26:01 [9] = assay: as above
HLA-A*31:01 = assay: as above; settings: source organism: Rickettsia prowazekii
HLA-A*69:01 = assay: as above
HLA-B*07:02 [10] = assay: as above
HLA-B*08:01 = assay: as above
HLA-B*15:01 = assay: as above
HLA-B*27:05 = assay: as above
HLA-B*40:01 [11] = assay: as above
HLA-B*44:02 [12] = assay: as above
HLA-B*58:01 = assay: as above
HLA-A*02:01 [13] = assay: IEDB peptide-MHC binding, purified MHC/competitive/fluorescence; ≥ and ≤ were set here for values at or beyond the usual limits of such assays; settings: source organism: Zaire ebolavirus
HLA-A*02:02 = assay: IEDB peptide-MHC binding, purified MHC/competitive/radioactivity; filed as Kd, often an IC50 or EC50 that approximates it; ≥ and ≤ were set here for values at or beyond the usual limits of such assays; settings: source organism: Homo sapiens
HLA-B*51:01 = assay: IEDB peptide-MHC binding, purified MHC/competitive/fluorescence; filed as Kd, often an IC50 or EC50 that approximates it; ≥ and ≤ were set here for values at or beyond the usual limits of such assays; settings: source organism: Burkholderia ambifaria AMMD
[14] = source organism: Zaire ebolavirus
[15] = source organism: Vaccinia virus
[16] = source organism: Dengue virus 2 Jamaica/1409/1983
[17] = source organism: Dengue virus 1 Brazil/97-11/1997
[18] = source organism: Dengue virus 4 Philippines/H241/1956
[19] = source organism: Rickettsia prowazekii
[20] = source organism: Vibrio cholerae
[21] = source organism: Dengue virus 3 Martinique/1243/1999

## RQTQSRPIQ
HLA-A*24:02 [1]; [14]
  pIC50: ≤ 3.90

## YTYATRGIY
HLA-A*26:01 [2]; source organism: Yersinia pestis Nepal516
  pKd: 8.21

## RNTTPMMIQ
HLA-A*24:02 [1]; [15]
  pIC50: ≤ 4.15

## KELKCGSGIF
HLA-B*44:02 [3]; [16]
  pKd: 7.47

## LDKITDFHE
HLA-A*24:02 [1]; source organism: Variola virus
  pIC50: 4.62

## RKHHTKIDS
HLA-A*24:02 [1]; source organism: Variola virus
  pIC50: 4.56

## GIFEDRAPV
HLA-A*02:01 [4]; source organism: Human alphaherpesvirus 1 strain 17
  pKd: 6.30

## LTLTNTSII
HLA-A*02:01 [4]; source organism: Lassa virus Josiah
  pKd: 5.20

## IEVKTCIWPK
HLA-B*40:01 [5]; [17]
  pKd: 5.54

## SISGVLWQV
HLA-A*02:01 [4]; source organism: Hepatitis C virus subtype 2b
  pKd: 7.44

## AIHNVVHAI
HLA-A*02:01 [4]; source organism: Triticum aestivum
  pKd: 6.78

## GEFGKAKGS
HLA-B*44:03; [16]
  pKd: 5.38

## QYVDDANLE
HLA-A*24:02 [1]; [15]
  pIC50: ≤ 2.88

## DTVHDRTPY
HLA-A*26:01 [2]; source organism: Influenza A virus (A/Waikato/7/2000(H3N2))
  pKd: 7.38

## RPMFAVGLLF
HLA-A*23:01
  pKd: 7.47
HLA-A*24:02 [6]
  pKd: 6.38
HLA-B*07:02 [7]; [17]
  pKd: 7.98
HLA-B*35:01
  pKd: 6.04
HLA-B*53:01
  pKd: 7.03

## VEITALILGA
HLA-B*40:01 [5]; [18]
  pKd: 6.07

## IYSAEFKNY
HLA-A*01:01; [19]
  pKd: ≤ 4.70
HLA-A*02:01 [8]; [19]
  pKd: ≤ 4.70
HLA-A*03:01; [19]
  pKd: ≤ 4.70
HLA-A*11:01; [19]
  pKd: ≤ 4.70
HLA-A*24:03; [19]
  pKd: 5.85
HLA-A*26:01 [9]; [19]
  pKd: ≤ 4.70
HLA-A*31:01
  pKd: ≤ 4.70
HLA-A*69:01; [19]
  pKd: ≤ 4.70
HLA-B*07:02 [10]; [19]
  pKd: ≤ 4.70
HLA-B*08:01; [19]
  pKd: ≤ 4.70
HLA-B*15:01; [19]
  pKd: 4.70
HLA-B*27:05; [19]
  pKd: ≤ 4.70
HLA-B*40:01 [11]; [19]
  pKd: ≤ 4.70
HLA-B*44:02 [12]; [19]
  pKd: ≤ 4.70
HLA-B*58:01; [19]
  pKd: ≤ 4.70

## SVMPAWQEK
HLA-A*01:01; [20]
  pKd: ≤ 4.70
HLA-A*02:01 [8]; [20]
  pKd: ≤ 4.70
HLA-A*03:01; [20]
  pKd: 7.13
HLA-A*11:01; [20]
  pKd: 8.30
HLA-A*24:03; [20]
  pKd: 4.99
HLA-A*26:01 [9]; [20]
  pKd: ≤ 4.70
HLA-A*69:01; [20]
  pKd: ≤ 4.70
HLA-B*07:02 [10]; [20]
  pKd: ≤ 4.70
HLA-B*08:01; [20]
  pKd: ≤ 4.70
HLA-B*15:01; [20]
  pKd: ≤ 4.70
HLA-B*27:05; [20]
  pKd: ≤ 4.70
HLA-B*40:01 [11]; [20]
  pKd: ≤ 4.70
HLA-B*44:02 [12]; [20]
  pKd: ≤ 4.70
HLA-B*58:01; [20]
  pKd: ≤ 4.70

## ELSGYCSNI
HLA-A*02:01 [4]; source organism: Lassa virus GA391
  pKd: 4.90

## WENVPYLGK
HLA-B*44:02 [3]; [21]
  pKd: 5.07

## NLEEICQLI
HLA-A*02:01 [13]
  pIC50: 4.19
HLA-A*24:02 [1]; [14]
  pIC50: ≤ 4.04

## IEQMANGIAL
HLA-B*40:01 [5]; [21]
  pKd: 8.59

## KLEEEQIIL
HLA-A*02:01 [4]; source organism: Homo sapiens
  pKd: 7.14
HLA-A*02:02
  pKd: 7.13

## RAAGLQDCTM
HLA-A*02:01 [4]; source organism: Hepatitis C virus (isolate 1)
  pKd: ≤ 4.30

## REWCFTGERN
HLA-B*40:01 [5]; [18]
  pKd: 6.30

## ADMGCVINW
HLA-B*44:02 [3]; [21]
  pKd: 7.03
HLA-B*44:03; [21]
  pKd: 6.96

## LVMKDGRVL
HLA-B*07:02 [7]; [16]
  pKd: 8.97

## LPWSSPQLW
HLA-B*51:01
  pKd: 7.04
